Reference: the nanobody polyreactivity screen of Harvey et al. (2022)

Test: yeast display, Sf9 membrane polyspecificity reagent, FACS + sequencing; frameworks hold sequencing errors
How it was run: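 Polyreactivity labels are assigned by the sorting gate from which each nanobody was recovered. The gates were low and high (top ~1%), set on anti-HA fluorescence for expression and streptavidin fluorescence for reagent binding. Before sorting, galactose-induced (36–48 hours) yeast display cells were stained for 1 hour at 4 °C with 10% biotinylated, detergent-solubilized Sf9 membrane reagent.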

Sequence | polyreactivity (PSR sort gate)
QVQLVESGGGLVQAAGSLRLSSAPSGRIFYKNARGWYRQAPGKETELVAAISWRGTSTYYADSVKGRFTISRDNAKNTVYLQMNILKPEDTAVYYCNTLYYSQREIYYWGYDSWGKGTQVTVSS | high polyreactivity
QVQLVESGGGLVQAGGSLRLSCAASGRTFGYYTMGWYRQAPGKERELVARINYIGSSTYYADSVKGRFTISRDNAKNTVYLHMNSLKPEDTAVYYSNADNARGRSGVRRYYWGQGTQVTVSS | high polyreactivity
QVQLVESGGGLVQAGGSLRLSCAASGSTFLKYAMGWYRQAPGKERELVAAISRSGTSTYYADSVKGRFTISRDNAKNTVYLQMNSLKPEDTAVYYCAARWIRSNTQYDYWGQGTQVTVSS | high polyreactivity
QVQLVESGGGLVQAGGSLRLSCAASGSTFYPNAMGWYRQAPGKERELVARISGRGGRTYYADSVKGRFTISRDNAKNTVYLLMNSLKPEDTAVYYCSKDPSSDLDYDYWGQGTQVTVSS | low polyreactivity
HVQLVESGGGLVQAGGSLRLSCAASGSTFTLNVMGWYRQAPGKERELVAGISKRGGNTYYADSVKGRFTISRDNAKNTVYLQMNSLKPEDTAVYYCATYSRIFKWEYYYWGQGTQVTVSS | high polyreactivity
QVQLVESGGGLVQAGGSLRLSCAASGSTFNYNAMGWYRQAPGKERELVAAIRSSDGSTHYADSVKGRFTISRDNAKNTVYLQMNSLKPEDTAVYYCAADYDVWWRDDYWGQGSQVTVSS | low polyreactivity
QVQLVESGGGLVQAGGSLRLSCAASGGIKRPYAMGWSRQAPRKERELVAAISYSGGSTYYADSVKGRFTISRDTAKISVYLLMNSLKTEDTAVYYCIAYRQCSNVLTTYEYWGKGTQVTVSS | high polyreactivity
QVQLVESGGGLVQAGGSLRLSCAASGSTFFVYDMGWYRQAPGKERELVAAISISDGGTYYADSVKGRFTISRDNAKNTVYLQMNSQKPVDTAVYYCAADYSERYFRGYDYWGQGTQVTVSS | low polyreactivity
QVQLVESGGGLVQAGGSLRLSCAASGRTIDSYAMGWYRQAPGKERELVAAISKSGGRTYYADSVKGRFTISRDNAKNTVYLQMNSLKPEDTAVYYCNAQRVAYWRVAYDYWGQGTQVTVSS | high polyreactivity
QVQLVESGGGLVPAGGSLRLSCAASGFTFEYYVIGWYRHAPGKERELVAAISSRGGSTYYADSVKGRFTISRDNAKNTVYLQMNSLKPDDTAVYYGATRDPYPRRREFEYWGQGTQVTVSS | low polyreactivity
QGQLGESGGGLVQAGGSLRLSCAATGFTSYVYAMGWYRQAPGKERELVAAISLRTASTYYADSVKGRFTISRDNAKNTVYLQMTSLKPEDTAVYDCALGRETYRYAYRLNYWGQGTQVTLSS | high polyreactivity
QVQLVESGGGLVQAGGSLRLSCAASGRIFVPNAMGWYSQAPGKERELVAAINWGGGSTYYADSVKGRFTISRDNAKNTVYLQMNSLKPEDTAVYYCAADHPYTIGVLPNQQFDYWGQGTQVTVSS | low polyreactivity
QVQLVESGGGLVQAGGSLRLSCAASGFIMQYNAMGRYIQAPRKERELVAAITRSGVSTHYADSVKGRYTISRDNAKNTVYLQMISLKPEDTAVYYCARTGQSLYSRYYYWGQGTQVTVSS | low polyreactivity
QVQLVESGGGLVQAGGSLRLSCAASGSTFRINAMGWYRQAPGNERELVAAMSYNGGGTYADSVKGRFTISRDNAKNTVYLQMNSLKPEDTAVSYCAADTYYGQAYTAYTYRLYDYWGEGTQVTVSS | low polyreactivity
QVQLVESGGGLVQAGGSLRLSCAASGYIFFTYTMGWYRQAPGKERELVAAINGSVGSTYYADSVKGRFTISRDNAKNTVYLQMNSLKPEDTAVYYCAAEVVDFGYSYEWEDDYWGQGTQVTVSS | high polyreactivity
QVQLVESGGGLVQAGGSLRLSCAASGRTFGIYAMGWYRQAPGKERELVAAIRWRDGSTYYADSVKGRFTISRDNAKNTVYLQMNSLKPEDTAVYYCAATSRVYVRGSYWKYGYWGQGTQVTVSS | high polyreactivity

Sequence | polyreactivity (PSR sort gate)
QVQLVESGGGLVQAGGSLRLSCAASGRTFRRYTMGWYRQAPGKERELVATISSGGSTYADSVKGRFTISRDNAKNTVYLQMNSLKPEDTAVYYCAARYDVAWYSKRYSWGQGTQVTVSS | high polyreactivity
PVQLVESGGGLVQAGGSLRLSCAASGTIFFSNAMGWYRQAPGKEREFVATITSSGVGTYYADSVKGRFTISRDNAKNTVYLQMNSLTPEDTAVYYCAADLTISYSQEYYYWGQGTQVTVSS | low polyreactivity
QVQLVESGGGLVQAGGSLRLSCAASGRTFYVSAMGWYRQAPGKERELVAAISWSGGSTYYADSVKGRFTISRDNAKNTVYLQMNSLKPEDTAVYYCAAQTYQRHVVAYDYWGQGTQVTVSS | low polyreactivity
QVQLVESGGGLVQAGGSLRLSCAASGITFDLYDMGWYRQAPGKERELVAAITDADSTYYADSVKGRFTISRDNAKNTVYLQMNSLKPEDTAVYYCAADFFYSVYSGHYDYWGQGTQVTVSS | low polyreactivity
QVQRVESGGGLVQAGGSLRLSCAASGSIFSVYAMGWYRQAPGKERELVAAITSSGGSTYYADSVKGRFTISRDNAKNTVNFQMKSLKPEDTAVYYCAADKYLRRRSWYRYGYWGQGTQVTVSS | high polyreactivity
QDQLVESGGGLVQAGGSLRLSCAASGFISRKNAMGWSRQAPGKERELVATITKSGDTTYYADSVKGRFTISRDNAKNTVYLQMNSLKPEDTAVYYCAAPLYYIGSWDYYVRYIYDYWGQGTQVTVSS | low polyreactivity
QVQLVESGGGLVQAGGSLRLSCAASGITFADNAMGWYRQAPGKERELVARISRGGRTNYADSVKGRFTISRDNAKNTVYLQMNSLKPEDTAVYYCAADKSSYEYYWGQGTQVTVSS | high polyreactivity
QVHLVESGGGLVQAGGSLRLSCAASGSTFTYYAMGWYRQAPGKERELVAAISRRGGSTYYADSVKGRFTISRDNAKNTVYLQMNSLKPEDTAVYYCNVVIYSYGCNGRYDFWGQGTQVTVSS | high polyreactivity
QVQLVESGGGLVQAGGSLRLSCAASGFTFFIYVMGWYRQAPGKEREFVAAISSSGDSTYYADSVKGRFTISRDNAKNTVYLQMNSLKPEDTAVYYCAADRIRDLEFDYWGQGTQVTVSS | low polyreactivity
QVQLVESGGGLVQAGGSLRLSCAASGRTFIGYAMGWYRQAPGKERELVAAISSSGGRTYYADSVKGRFTISRDNAKNTVYLQMNSLKPEDTAVYYCNAVRYVLGYSYDYNYWGQGTQVTVSS | high polyreactivity
QVQLVESGGGLVQAGGSLRLSCAASGRIIYDKAMGWYRQAPGKERELVAAISRSGRTYYADSVKGRFTISRDNAKNTVYLQMNSLKPEDSAVYYCNARTLTVLEFDYWGQGTQVTVSS | low polyreactivity
QVQLVESGGGLVQAGGSLRLSCAASGITFDGYAMGWYRQAPGKERELVAAITYSGGRTYYADSVKGRFTISRDNAKNTVYLQMNCLKPDDTAVYYCAVVSRRLYEYDYWGQGTQVTVSS | high polyreactivity
QVQLVESWGGLVQEGGSLRVSCAASGSIFSHYAMGRYRQAPGKEREFVAAIPRGVSTYYADSVKGRFTISRDNAKNTVYLLMNSLKPEYTGVYSCNKTYVRGVHGVYLPITSYDYWGQGTQVTVSS | low polyreactivity
QVQLVESGGGLVQAGGSLRLSCAASGRIFIRNAMGWYRQAPGKERELVAAITQSGGSTYYADSVKGRFSISRVYAKNTVYLQMNSLKPEDTAVYYCNAVRYNCVGYDYWGQGTQVTVSS | high polyreactivity
QVQLVESGGGLVQAGGSLRLSCAASGRIYIIYAMGWYRQAPRKEREMVAAITRSGGRTFYADSVKGRFTISRDNAKNTVYLQMNSLKPEDTAVYYCAAAFGRVTKYGYRNQYGYWGQGTQVTVSS | high polyreactivity
